{"source": "patent US6808930B1", "about": "“Therapeutic agents” (priority 1997, dated 2004)", "molecules": {"B1": {"name": "MAL: protein complex from human milk casein containing oligomeric forms of α-lactalbumin; the apoptosis-inducing fraction (protein, UniProt P00709 20-142, looked up)", "Alpha-lactalbumin": "KQFTKCELSQLLKDIDGYGGIALPELICTMFHTSGYDTQAIVENNESTEYGLFQISNKLWCKSSQVPQSRNICDISCDKFLDDDITDDIMCAKKILDIKGIDYWLAHKALCTEKLEQWLCEKL", "modifications": "oligomeric form from milk casein", "notes": "protein complex from human milk casein containing oligomeric forms of α-lactalbumin; the apoptosis-inducing fraction"}}, "key": {"[1]": {"system": "L1210 cells", "assay": "Subcellular fractionation of cells exposed to 125I-labelled protein", "type": "cell-based, murine", "description": "(§1) The intracellular distribution of MAL was further analysed in cells exposed to ^125I-labelled MAL with ^[…] α-lactalbumin and IgG as controls (FIG. 4). Subcellular fractions were prepared after mechanic disruption of the cells and the amount of radiolabelled MAL in each fraction was determined in relation to the total cell-associated radioactivity measured prior to disruption of the cells. Fraction P1 contained mostly cell nuclei, P2 contained plasma-Golgi-, ER-membranes and mitochondria, P3 contained small vesicles and the supernatant. Fraction S contained the cytosolic proteins. The purity of the fractions was determined by quantitation of specific markers (DNA, alkaline phosphatase, RNA and catalase).\n(§2) Specifically, cellular subfractionation was performed as described (J. Graham., Isolation of subcellular organelles and membranes., p161-1019. In D. Rickwood ed., Centrifugation, a practical approach, 2nd ed. IRL Press, Washington D.C.). L1210, A549 or HRTEC cells in suspension (3×10^6 cells/ml, 100 μla were incubated with 1×10^6 cpr of ^125I-labelled MAL, ALA or IgG for various times at 37° C. The cells were washed three times with ice-cold PBS and the supernatants were discarded. The cells were suspended in 500 μl of homogenisation buffer (10 mM Tris-HCl, pH 7.8, 5 mM MgCl2 and 2 mM CaCl2 for L1210 cells and 0.15M NaCl, 2 mM EDTA, pH 7.5 for A549 cells), and homogenised by 50 strokes in a Dounce homogenizer (Thomas, Philadelphia, USA) with pestle size 415. Sucrose was added to a final concentration of […] and the homogenate was centrifuged at 100×g for 25 min at RT. The first pellet contained nuclei, large mitochondria and large sheets of plasma membrane. The remaining supernatant was further centrifuged at 12 000×g for 30 min at 4° C. resulting in a second pellet containing mitochondria endoplasmic reticulum, plasma membrane and cytoplasmic organelles. The supernatant was finally centrifuged at 150,000×g for 2 h at 4° C. resulting in a pellet containing small vesicles, endoplasmic reticulum and a supernatant containing cytosolic proteins."}, "[2]": {"system": "HRTEC cells", "assay": "Subcellular fractionation of cells exposed to 125I-labelled protein", "type": "cell-based, human", "description": "as §1, §2"}, "[3]": {"system": "A549 cells", "assay": "Subcellular fractionation of cells exposed to 125I-labelled protein", "type": "cell-based, human", "description": "as §1, §2"}, "[4]": {"system": "L1210 cells", "assay": "Cell viability by trypan blue exclusion", "type": "cell-based, murine", "details": "L1210 cell line", "description": "(§3) Remaining cells were analysed for DNA fragmentation."}, "[5]": {"system": "HRTEC cells", "assay": "Cell surface binding of biotinylated protein, flow cytometry", "design": "species or system human", "details": "biotinylated MAL, 30 min; third of three cell types (HRTEC by order)", "description": "(§4) MAL, human α-lactalbumin (HLA) and immunoglobulin G were biotinylated according to the manufacturer's instructions or labelled with ^125I with the lactoperoxidase method. Proteins were dissolved in PBSA-T buffer (30 mM Na2HPO4, 120 mM NaCl, pH 7.4, with 0.1% NaAzid, 0.05% Tween-20) and 25 μl of protein (25 μg) was incubated with 2 μl of ^125([…]), 2 μl of lactoperoxidase (2.5 mg/ml) and 2 μl of H2O2 (diluted 1:2000 in PBS) for 2 min at room temperature. The reaction was stopped by the addition of 500 μl of PBSA-T. The labelled protein was purified on a PD-10 column. 500 μl fractions in PBSA-T were eluted and fractions containing radioactivity were stored at […]. […] L1210, A549 and HRTEC cells (3×10^6 cells/ml, 50 μl) were incubated in suspension with 50 μl of biotinylated MAL, ALA or BSA for various times at 37° C. The cells were washed with PBS by centrifugation at 320×g for 10 min and the supernatant was discarded. FITC-conjugated streptavidin (diluted 1:50 in PBS) was added and the cells were incubated for 30 min at room temperature. The cells were washed by centrifugation as above, suspended in 300 μl PBS and the surface fluorescence was analysed by flow cytometry on a Coulter Epics Profile II flow cytometer (Coulter Inc.), equipped with a 488 nm argon laser. Green fluorescence was detected with a 525 nm band pass filter. […]"}, "[6]": {"system": "A549 cells", "assay": "Cell surface binding of biotinylated protein, flow cytometry", "design": "species or system human", "details": "biotinylated MAL, 30 min; second of three cell types (A549 by order)", "description": "as §4"}, "[7]": {"system": "HRTEC cells", "assay": "Cell viability by trypan blue exclusion", "type": "cell-based, human", "description": "as §3"}, "[8]": {"system": "A549 cells", "assay": "Cell viability by trypan blue exclusion", "type": "cell-based, human", "description": "as §3"}, "[9]": {"system": "digitonin-permeabilized cells", "assay": "DNA fragmentation in digitonin-permeabilized cells", "type": "cell-based", "details": "0.4 mg/ml", "description": "Briefly, 1×10^6 cells were incubated in 100 μl of nuclear transport buffer (NTB), with the addition of 1 μg/ml each of leupeptin, aprotinin, antipain, and 40 μg/ml of digitonin for 5 min at room temperature and washed by centrifugation at 320×g for 10 min in NTB. Biotinylated protein (5 μl, 5 mg/ml) was added to the cells in a total volume of 100 μl NTB supplemented with phosphcreatin, creatine phosphokinase and ATP, incubated for various time at RT and washed twice in NTB by centrifugation at 320×g for 10 min. The cells were treated with 0.2% Triton-X100 in NTB for 6 min and washed finally 1:100 dilution of fluorescein-conjugated strepatvidin was added for 30 min at RT and washed. The cells were then inspected by fluorescence microscopy in a Nikon Microphot (Japan) microscope or by laser scanning confocal microscopy in a BioRad MRC-1024 instrument.\nWhen adding 0.4 mg/ml of MAL to digitonin-permeabilized cells, HMW DNA fragments were formed after 1 hour and oligonucleosomal fragments after 2 hours. […] IgG was not detected in isolated nuclei or in nuclei of digitonin-permabilized cells (FIG. 7a)."}}}
{"molecule": "B1", "values": [{"measurement": "share of total cell associated radioactivity in nuclear fraction (P1)", "setting": "[1]; 6 h, 125I-labelled", "result": "about 78%"}, {"measurement": "total cell associated radioactivity", "setting": "[1]; 6 h, 125I-labelled, denominator in brackets", "result": 44000}, {"measurement": "radioactivity in nuclear fraction (P1)", "setting": "[1]; 6 h, 125I-labelled, numerator in brackets", "result": 34200}, {"measurement": "radioactivity in cytosolic fraction", "setting": "[1]; final time-point", "result": 4500, "unit": "cpm"}, {"measurement": "radioactivity in pellet 2", "setting": "[1]; final time-point", "result": 4500, "unit": "cpm"}, {"measurement": "radioactivity in pellet 3", "setting": "[1]; final time-point", "result": 800, "unit": "cpm"}, {"measurement": "share of radioactivity in cytosolic fraction", "setting": "[1]; final time-point", "result": 10, "unit": "%"}, {"measurement": "share of radioactivity in pellet 2", "setting": "[1]; final time-point", "result": 10, "unit": "%"}, {"measurement": "share of radioactivity in pellet 3", "setting": "[1]; final time-point", "result": 2, "unit": "%"}, {"measurement": "share of total cell associated radioactivity in nuclear fraction (P1)", "setting": "[2]; 24 h, 125I-labelled", "result": 16, "unit": "%"}, {"measurement": "total cell associated radioactivity", "setting": "[2]; 24 h, denominator in brackets", "result": 14000}, {"measurement": "radioactivity in nuclear fraction (P1)", "setting": "[2]; 24 h, numerator in brackets", "result": 2200}, {"measurement": "radioactivity in cytosolic fraction", "setting": "[2]; final time-point", "result": 8600, "unit": "cpm"}, {"measurement": "radioactivity in pellet 2", "setting": "[2]; final time-point", "result": 2100, "unit": "cpm"}, {"measurement": "radioactivity in pellet 3", "setting": "[2]; final time-point", "result": 1100, "unit": "cpm"}, {"measurement": "share of radioactivity in cytosolic fraction", "setting": "[2]; final time-point", "result": 61, "unit": "%"}, {"measurement": "share of radioactivity in pellet 2", "setting": "[2]; final time-point", "result": 15, "unit": "%"}, {"measurement": "share of radioactivity in pellet 3", "setting": "[2]; final time-point", "result": 8, "unit": "%"}, {"measurement": "total cell associated radioactivity", "setting": "[3]; 24 h, denominator in brackets", "result": 27000}, {"measurement": "radioactivity in nuclear fraction (P1)", "setting": "[3]; 24 h, numerator in brackets", "result": 13700}, {"measurement": "radioactivity in cytosolic fraction", "setting": "[3]; final time-point", "result": 6800, "unit": "cpm"}, {"measurement": "radioactivity in pellet 2", "setting": "[3]; final time-point", "result": 5100, "unit": "cpm"}, {"measurement": "radioactivity in pellet 3", "setting": "[3]; final time-point", "result": 1400, "unit": "cpm"}, {"measurement": "share of radioactivity in cytosolic fraction", "setting": "[3]; final time-point", "result": 25, "unit": "%"}, {"measurement": "share of radioactivity in pellet 2", "setting": "[3]; final time-point", "result": 19, "unit": "%"}, {"measurement": "share of radioactivity in pellet 3", "setting": "[3]; final time-point", "result": 5, "unit": "%"}, {"measurement": "sensitivity to MAL-induced apoptosis", "setting": "[4]", "result": "highly sensitive"}, {"measurement": "fluorescence intensity of cell surface binding", "setting": "[5]", "result": "8.5 times that of the streptavidin control"}, {"measurement": "fluorescence intensity of cell surface binding", "setting": "[6]", "result": "13.4 times that of the streptavidin control"}, {"measurement": "cell viability", "setting": "[7]; HRTEC cells, 24 h incubation with up to 4 mg/ml", "result": "remained fully viable"}, {"measurement": "sensitivity to MAL-induced apoptosis", "setting": "[7]; non-transformed cultures (HRTEC), within the tested concentration range", "result": "resistant"}, {"measurement": "sensitivity to MAL-induced apoptosis", "setting": "[8]", "result": "intermediately sensitive"}, {"measurement": "time after which HMW DNA fragments were formed", "setting": "[9]", "result": 1, "unit": "h"}, {"measurement": "time after which oligonucleosomal fragments were formed", "setting": "[9]", "result": 2, "unit": "h"}]}
